The supplement of paper PMC12764529
± gives the half width of the 95% confidence interval.

Assay: folding stability dG unfold (combined trypsin and chymotrypsin); higher = more stable
How it was run: (§1)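 Sequencing followed digestion of designed mini-proteins with trypsin and chymotrypsin, each at 11 concentrations in threefold dilutions together with a no-protease condition. The mini-proteins were under 80 residues, had no cysteine, sat in a PA-tagged cDNA display construct, and were kept only if AlphaFold2 dimer inter-PAE was above 15. From the counts, Bayesian fitting gave K50, and unfolding free energy was derived against a sequence-predicted unfolded-state K50 and a shared folded-state K50, per protease or combined.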

| Sequence | folding stability dG unfold |
| --- | --- |
| SAGGSAGGSAGMTIKEDPKTGTRVVRLPDGSVLYIEEKGDKIKKVYSDPVPPVPPGNPALASAGGSAGGSAG [r3_406_JUSTAS] | 0.574 ± 0.061 kcal/mol |
| SAGGSAGGDRLEVVAPVDDPVEQAREFAERLREEFRRRYPDREIDRVEVFYDPGARTLHVRLYPSAGGSAGG [r6_662_TrMRF] | 2.51 ± 0.066 kcal/mol |
| SAGGSAGGSAGGSPKRVTMYFIIPFYILIPKEDADGNNEWVIIPITIIIKIEIELPPGDSAGGSAGGSAGGS [r4_326_TrROS] | 5.48 ± 0.19 kcal/mol |
| SAGGEELIKELLDKLPPDVKEATIEIEVDGKKVTLTVNEDGEVTLEVIDPETKEKKTFKIKNGKIEPVSAGG [r13_803_TrROS_Hall] | 2.97 ± 0.28 kcal/mol |
| FEELRNLPGLSLTPLAEEGEVRVYRLSLPPSVLAARGLPGVTVTVTVFPDGSYTVLPDDVPALEAAGLVVES [r1_256_JUSTAS] | 2.03 ± 0.045 kcal/mol |
| SAGGSPTREVVLPTKDPTADKAFYTVRITLTEPPSNSTAVTVTFLDLPPDVEPSPELVAAVEAALSSAGGSA [r2_7_JUSTAS] | 0.495 ± 0.056 kcal/mol |
| SAGGSPVYKVEIRMTIVDKNGTVKSIVNLELTFKTEEEIEKFLESIPKETVVEIEIEKRTVEPPEKLSAGGS [r16_677_JUSTAS] | 1.41 ± 0.11 kcal/mol |
| SAGGSKKTLTITVKNKETGETVKIKVELTPDGKKIKITIVAKKEEEAKEAAKKLLEELGYKVEIVPSAGGSA [r2_30_TrROS_Hall] | 2.09 ± 0.2 kcal/mol |
| SAGKPLTPDEAKELAEELVDAFAEEFARRHGMPPDDMKVIEVEETPDGYIQVTFRMPNMPMKFEIPVKDSAG [r5_565_TrROS] | 0.366 ± 0.1 kcal/mol |
| SAGGVITIRIPGIDNRNPETMRSKAVEIADRLRDHGVTVTDVEWDPDQGSMTITVMLPGQSLEDILKSAGGS [r8_344_TrROS] | 2.42 ± 0.084 kcal/mol |
| SAGMKITVKAVLKKGEKEYEVEFEADSLEEIIGAILELYEKLNFDELRVKIKIGDKEYEIELPFLIPDESAG [r5_946_TrMRF] | 4.24 ± 0.94 kcal/mol |
| SAGGSAGGSAGSITFTVPASEFTEEEILERLVEELGIPREKVDLVEIKETPDGKLKVTIKIPSAGGSAGGSA [r18_118_JUSTAS] | 2.63 ± 0.06 kcal/mol |
| SAGGSAKLIVADVSPLPDGGFAVNVTFVGENGEPVAVKPFYAGSPEELLAALKKFAEENGYEVVVASAGGSA [r15_242_TrMRF] | 4.43 ± 0.11 kcal/mol |
| SAGGEPPPVRVSFSVEEVTVGAGPVFVRRVVTYDPAEGRVSEFVEVFERGRGGLLGRSSRTVPAEELASAGG [r13_772_TrMRF] | 4.44 ± 0.16 kcal/mol |
| SAGGSAGGSAPKILIVEDEKTGKLYAFVYDKDTKELYVAEFTYDKKTKKLTVKIKKVSLEDLSAGGSAGGSA [r18_505_TrROS_Hall] | 4.19 ± 0.26 kcal/mol |
| SAGGSAGGSAGGWFYKRDPDGKPLEPRPVVVIKISYEISYDADGGWKLKLNISIYPVYWISAGGSAGGSAGG [r7_572_TrROS] | 4.77 ± 0.31 kcal/mol |
| SAGMTLIIRVKVYNKDGELVEEREIEVPNMSVEEIAEALKKLPNVEKVKIEVFNADGEKKEIEIEVKPSAGG [r19_269_TrROS_Hall] | 4.1 ± 0.09 kcal/mol |
| SAGGMIVANVNPETDKVTLLITRPVVLYDEETGELREEEVTLVITASLEELEKLEEESGLPLLIIPSSAGGS [r8_337_TrMRF] | 1.92 ± 0.15 kcal/mol |
| SAGGSAGGSAMKIKIEVVKNKNGYYYLKVEIEVNGKKIEITIKVPKNEKVSIEELLKKILKKSAGGSAGGSA [r18_111_TrROS_Hall] | 4.07 ± 0.16 kcal/mol |
| SAGGSAMKLVLTFPEGLPEIPLEELAKAIEDALPEDFEVKEIKVEPLPDGGLRLTFIVNDEEVEILSAGGSA [r15_451_TrMRF] | 2.54 ± 0.048 kcal/mol |
| SAGGSAGGSAEELLKKLAEELGLEEGDEVTIEVDGKLIKIYFNKDGKIVKVEVYELDPEDLSAGGSAGGSAG [r3_468_TrROS_Hall] | 3.25 ± 0.079 kcal/mol |

Assay: folding stability dG unfold from chymotrypsin proteolysis; higher = more stable
How it was run: as §1

| Sequence | folding stability dG unfold |
| --- | --- |
| SAGGSAGGMKVRVKIEVEGKTLEIEIEVPEEKREEALEKAKKLAEKLAEELDVEVKIVEVEEEPSAGGSAGG [r6_459_TrROS_Hall] | 2.41 ± 0.073 kcal/mol |
| SAGGSGIDFDIEFHNNHITIDIYMYDPNGQPIFEMTMTIPIPPVPPPPVPEVKVDDPEEAKEAKNQSAGGSA [r2_332_TrROS] | 2.35 ± 0.17 kcal/mol |
| SAGGSAGGSEEELKKLLDNIKEVKVVENENGEKYVVFTVTDKNGKKITIVAKSPEARELAKKLSAGGSAGGS [r12_466_TrROS_Hall] | 2.35 ± 0.046 kcal/mol |
| SAMIIVAMAPDRMLIIGPDGRVLVVDDPEKAIELIKELFPVPIIVIPVPEDSPVFRELLERLERERTGESAG [r14_235_TrMRF] | 3.18 ± 0.11 kcal/mol |
| SAGGSAGGSAAMTVSEVSSSPDPSSDYLSFEVRTTETVKVPGTKAPVTTTVTTTPTKVSKLLSAGGSAGGSA [r18_41_JUSTAS] | -0.177 ± 0.25 kcal/mol |
| SAGGSAGGSAGPYVVTIELPSGERIEVAVPAERLEEHVEELKPLVEPARITVRPVAPDALSAGGSAGGSAGG [r11_103_TrMRF] | 0.477 ± 0.018 kcal/mol |
| SDLDPNSTLVFSAPFPVSDPDALLEHAETVARELGPDVRVERVVFDPNTPNVAVVEVSVPGGTVTLVYSRSA [r9_1079_TrMRF] | 1.36 ± 0.061 kcal/mol |
| SAGPITITYDEETGTLTITATVAPGEEVTFKLTFVDEETGVVVTEVEETVTVKEGDTVTITVKVEKLPPSAG [r5_737_TrROS_Hall] | 3.69 ± 0.13 kcal/mol |
| SAGGSAKPELVKKLKEALEEEFPDLKVEVVKVDKKNKKIYIKVKSEEEKKRIAELLKKLGIEVEIESAGGSA [r15_196_TrROS_Hall] | 3.33 ± 0.079 kcal/mol |
| SAGGSAGGSASWITITGLLPGGRLVTTRYDPSTGSVSTETTPIPPVPAFPLGPENLALNFLLSAGGSAGGSA [r18_236_JUSTAS] | 0.528 ± 0.19 kcal/mol |
| SAGGSAGGSYYMIEIEFPDTGQRITFPFKSLEEAKEFLPPGAPIREIEVQPIKPPVDPEQQNESAGGSAGGS [r12_851_TrROS] | 1.31 ± 0.12 kcal/mol |
| SAGGFVTFKAPPVLIEAFKKAGLTPSEAKTLLLPVKFGDKEVVVEVTFYPETGEVKVKVLSFGTEFEAESAG [r5_545_TrMRF] | 3.38 ± 0.04 kcal/mol |
| SAGMVVIEVKKDEVPVDPEKALVFEFGDKRYILVDGEKAEEIKDAFPNLDIKIKPVSPEELEKLLKAHSAGG [r19_271_TrMRF] | 1.34 ± 0.1 kcal/mol |
| SAGGSAGGSAGGKHKIPITNVHVSPPNGYIHVTIRFPGDGKPIEIHFPVPPGEPITIEISAGGSAGGSAGGS [r10_940_TrROS] | 3.53 ± 0.27 kcal/mol |
| SAGGSAGGSDTLEYEVPLEDGSTIRITLFPDGTARVELEDGTPVAEIEVPPDTSIEELIARIRSAGGSAGGS [r12_990_TrMRF] | 2.06 ± 0.063 kcal/mol |
| SAGGSAGGSGSLLEKLGLEPNSTVTVTVTPEEAEKIRAEPRVKEIKREPTPEDTYLYTITVVASAGGSAGGS [r12_750_JUSTAS] | 0.0205 ± 0.2 kcal/mol |
| SAGGSAGGMKEGEEFEIELPDKYKVKIRVKDNIIEVEFPPGLRVRAEILENGEVKVYLPPELKPSAGGSAGG [r6_970_TrMRF] | 1.42 ± 0.048 kcal/mol |
| SAGGSAGGSAGGDRLKIIIPFPPGMDIDQIAEELKPHFKKVEIEHDKEDGWVTIEVELDSAGGSAGGSAGGS [r10_1007_TrROS] | 1.08 ± 0.1 kcal/mol |
| SAGGGPDLVIDVEILEIRVEPEPGKTATIRVRALIYNPETDTWTLAEFEIRIPDDGSVEVRFRVEPLRSAGG [r13_917_TrMRF] | 4.13 ± 0.05 kcal/mol |
| SAGGSAGGSAGGAPVEVKTAVFRHPDNPRWYVLRVARLPGTGRLVVVLFDPETGEFAVFPSAGGSAGGSAGG [r7_923_TrMRF] | 2.18 ± 0.16 kcal/mol |
| SNWITLKHTIKHPGREIKIEITAQPNPGGPYWIQVNIEVRDPNGEKEEVEITVPFRGMSIEDFLKNAADASA [r9_217_TrROS] | 4.46 ± 0.062 kcal/mol |

| Sequence | folding stability dG unfold |
| --- | --- |
| SAGGSAGGSAGMTIKEDPKTGTRVVRLPDGSVLYIEEKGDKIKKVYSDPVPPVPPGNPALASAGGSAGGSAG [r3_406_JUSTAS] | 0.734 ± 0.048 kcal/mol |
| SAGGSAGGDRLEVVAPVDDPVEQAREFAERLREEFRRRYPDREIDRVEVFYDPGARTLHVRLYPSAGGSAGG [r6_662_TrMRF] | 2.704 ± 0.024 kcal/mol |
| SAGGSAGGSAGGSPKRVTMYFIIPFYILIPKEDADGNNEWVIIPITIIIKIEIELPPGDSAGGSAGGSAGGS [r4_326_TrROS] | 5.49 ± 0.14 kcal/mol |
| SAGGEELIKELLDKLPPDVKEATIEIEVDGKKVTLTVNEDGEVTLEVIDPETKEKKTFKIKNGKIEPVSAGG [r13_803_TrROS_Hall] | 3.19 ± 0.079 kcal/mol |
| FEELRNLPGLSLTPLAEEGEVRVYRLSLPPSVLAARGLPGVTVTVTVFPDGSYTVLPDDVPALEAAGLVVES [r1_256_JUSTAS] | 2.43 ± 0.037 kcal/mol |
| SAGGSPTREVVLPTKDPTADKAFYTVRITLTEPPSNSTAVTVTFLDLPPDVEPSPELVAAVEAALSSAGGSA [r2_7_JUSTAS] | 0.436 ± 0.13 kcal/mol |
| SAGGSPVYKVEIRMTIVDKNGTVKSIVNLELTFKTEEEIEKFLESIPKETVVEIEIEKRTVEPPEKLSAGGS [r16_677_JUSTAS] | 0.699 ± 0.068 kcal/mol |
| SAGGSKKTLTITVKNKETGETVKIKVELTPDGKKIKITIVAKKEEEAKEAAKKLLEELGYKVEIVPSAGGSA [r2_30_TrROS_Hall] | 1.61 ± 0.066 kcal/mol |
| SAGKPLTPDEAKELAEELVDAFAEEFARRHGMPPDDMKVIEVEETPDGYIQVTFRMPNMPMKFEIPVKDSAG [r5_565_TrROS] | 0.277 ± 0.11 kcal/mol |
| SAGGVITIRIPGIDNRNPETMRSKAVEIADRLRDHGVTVTDVEWDPDQGSMTITVMLPGQSLEDILKSAGGS [r8_344_TrROS] | 2.69 ± 0.051 kcal/mol |
| SAGMKITVKAVLKKGEKEYEVEFEADSLEEIIGAILELYEKLNFDELRVKIKIGDKEYEIELPFLIPDESAG [r5_946_TrMRF] | 4.2 ± 0.68 kcal/mol |
| SAGGSAGGSAGSITFTVPASEFTEEEILERLVEELGIPREKVDLVEIKETPDGKLKVTIKIPSAGGSAGGSA [r18_118_JUSTAS] | 2.488 ± 0.021 kcal/mol |
| SAGGSAKLIVADVSPLPDGGFAVNVTFVGENGEPVAVKPFYAGSPEELLAALKKFAEENGYEVVVASAGGSA [r15_242_TrMRF] | 4.57 ± 0.06 kcal/mol |
| SAGGEPPPVRVSFSVEEVTVGAGPVFVRRVVTYDPAEGRVSEFVEVFERGRGGLLGRSSRTVPAEELASAGG [r13_772_TrMRF] | 4.7 ± 0.13 kcal/mol |
| SAGGSAGGSAPKILIVEDEKTGKLYAFVYDKDTKELYVAEFTYDKKTKKLTVKIKKVSLEDLSAGGSAGGSA [r18_505_TrROS_Hall] | 4.67 ± 0.18 kcal/mol |
| SAGGSAGGSAGGWFYKRDPDGKPLEPRPVVVIKISYEISYDADGGWKLKLNISIYPVYWISAGGSAGGSAGG [r7_572_TrROS] | 5.01 ± 0.15 kcal/mol |
| SAGMTLIIRVKVYNKDGELVEEREIEVPNMSVEEIAEALKKLPNVEKVKIEVFNADGEKKEIEIEVKPSAGG [r19_269_TrROS_Hall] | 4.43 ± 0.064 kcal/mol |
| SAGGMIVANVNPETDKVTLLITRPVVLYDEETGELREEEVTLVITASLEELEKLEEESGLPLLIIPSSAGGS [r8_337_TrMRF] | 2.16 ± 0.071 kcal/mol |
| SAGGSAGGSAMKIKIEVVKNKNGYYYLKVEIEVNGKKIEITIKVPKNEKVSIEELLKKILKKSAGGSAGGSA [r18_111_TrROS_Hall] | 4.55 ± 0.12 kcal/mol |
| SAGGSAMKLVLTFPEGLPEIPLEELAKAIEDALPEDFEVKEIKVEPLPDGGLRLTFIVNDEEVEILSAGGSA [r15_451_TrMRF] | 2.52 ± 0.017 kcal/mol |
| SAGGSAGGSAEELLKKLAEELGLEEGDEVTIEVDGKLIKIYFNKDGKIVKVEVYELDPEDLSAGGSAGGSAG [r3_468_TrROS_Hall] | 3.59 ± 0.087 kcal/mol |
